The source of these data is PMC4993455.

Test [1] deals with recombinant methionine adenosyltransferase α1 (MATα1) (rat) (UniProt P13444).
The target of test [2] is recombinant human methionine adenosyltransferase α2 (MATα2) (human) (UniProt P31153).
Chain of recombinant human methionine adenosyltransferase α2 (MATα2) (human) (P31153 whole entry): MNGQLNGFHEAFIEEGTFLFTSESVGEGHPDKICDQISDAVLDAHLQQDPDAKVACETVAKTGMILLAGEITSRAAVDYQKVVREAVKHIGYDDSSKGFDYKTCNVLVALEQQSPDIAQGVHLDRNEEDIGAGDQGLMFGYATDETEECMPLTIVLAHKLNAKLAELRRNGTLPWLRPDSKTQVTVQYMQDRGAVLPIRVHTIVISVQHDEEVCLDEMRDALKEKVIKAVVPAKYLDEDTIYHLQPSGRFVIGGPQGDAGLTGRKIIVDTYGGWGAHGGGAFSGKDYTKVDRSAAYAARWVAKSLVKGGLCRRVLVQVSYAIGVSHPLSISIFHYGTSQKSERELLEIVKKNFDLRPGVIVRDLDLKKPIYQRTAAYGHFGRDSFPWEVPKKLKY

Chain of recombinant PDRG1 (tag excised) (Q642A0 whole entry): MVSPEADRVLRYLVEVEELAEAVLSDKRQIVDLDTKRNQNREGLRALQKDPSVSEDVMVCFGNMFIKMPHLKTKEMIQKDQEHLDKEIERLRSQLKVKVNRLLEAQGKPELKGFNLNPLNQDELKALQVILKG
Chain of recombinant methionine adenosyltransferase α1 (MATα1) (rat) (P13444 whole entry): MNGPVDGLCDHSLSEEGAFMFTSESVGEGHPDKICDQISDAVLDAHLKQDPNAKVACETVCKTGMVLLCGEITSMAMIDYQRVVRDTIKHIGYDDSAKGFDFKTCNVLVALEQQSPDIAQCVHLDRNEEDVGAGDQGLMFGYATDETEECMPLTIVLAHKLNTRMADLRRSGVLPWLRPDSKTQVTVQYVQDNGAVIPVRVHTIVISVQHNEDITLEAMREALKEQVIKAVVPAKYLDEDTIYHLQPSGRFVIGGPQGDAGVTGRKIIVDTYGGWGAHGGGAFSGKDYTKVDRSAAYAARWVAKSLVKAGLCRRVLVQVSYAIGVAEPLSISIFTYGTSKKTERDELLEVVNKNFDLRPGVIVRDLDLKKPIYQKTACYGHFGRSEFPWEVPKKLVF

As for “recombinant PDRG1 (tag excised) (from UniProt Q642A0 1-133) (natural protein)”, in test [1], the IC50 of PDRG1 (0–5.6 μM) on S-adenosylmethionine synthesis by purified recombinant MATα1 homo-oligomers (0.7 μM) came to 3.34 µM and the reduction in AdoMet synthesis by MATα1 homo-oligomers (0.7 μM) with increasing concentrations of PDRG1 (0–5.6 μM) is less than 50%. Also, in test [2], the IC50 of PDRG1 on S-adenosylmethionine synthesis by purified recombinant MATα2 homo-oligomers (0.7 μM) was determined as 3.79 µM and the reduction in AdoMet synthesis by MATα2 homo-oligomers (0.7 μM) with increasing concentrations of PDRG1 is less than 50%.
